From article PMC5496856

B1: MPT32 (also called Rv1860 or Apa): T10V (protein)
parent chain: MHQVDPNLTRRKGRLAALAIAAMASASLVTVAVPATANADPEPAPPVPTTAASPPSTAAAPPAPATPVAPPPPAAANTPNAQPGDPNAAPPPADPNAPPPPVIAPNAPQPVRIDNPVGGFSFALPAGWVESDAAHFDYGSALLSKTTGDPPFPGQPPPVANDTRIVLGRLDQKLYASAEATDSKAAARLGSDMGEFYMPYPGTRINQETVSLDANGVSGSASYYEVKFSDPSKPNGQIWTGVIGSPAANAPDAGPPQRWFVVWLGTANNPVDKGAAKALAESIRPLVAPPPAPAPAPAEPAPAPAPAGEVAPTPTTPTPQRTLPA
B2: MPT32 (also called Rv1860 or Apa): T18V (protein)
parent chain: B1 parent chain

Conditions: glycan lost; control: wild type

Protein | other: T cell antigenicity
B1 | no change
B2 | increases
